{"source": "patent US5804604", "about": "“Tat-derived transport polypeptides and fusion proteins” (Biogen, Inc., dated 1998)", "binders": {"B1": {"name": "JB106 (other)", "chain": "MYGRKKRRQRRRPPDTGNPCHTTKLLHRDSVDSAPILTAFNSSHKGRINCNSNTTPIVHLKGDANTLKCLRYRFKKHCTLYTAVSSTWHWTGHNVKHKSAIVTLTYDSEWQRDQFLSQVKIPKTITVSTGFMSI"}, "B2": {"name": "TxHE2CCSS (tat37-72 chemically cross-linked to E2.123CCSS) (other)", "chain": "MVPDTGNPCHTTKLLHRDSVDSAPILTAFNSSHKGRINCNSNTTPIVHLKGDANTLKSLRYRFKKHSTLYTAVSSTWHWTGHNVKHKSAIVTLTYDSEWQRDQFLSQVKIPKTITVSTGFMSI", "peptide": "CFITKALGISYGRKKRRQRRRPPQGSQTHQVSLSKQ", "modifications": "cysteine cross-linked through bismaleimidohexane (BMH) to tat37-72; 1 transport molecule per E2 repressor homodimer; cysteine coupled to bismaleimidohexane (BMH)"}, "B3": {"name": "HE2.123 (unconjugated E2.123 repressor protein) (other)", "chain": "B2 chain with S58C, S67C"}}, "molecular_target": "full-length HPV-16 E2 protein (E2 transactivator expressed from plasmid pAHE2) (human papillomavirus strain 16 (HPV-16), UniProt P03120)", "assay": "cell-based or functional assay", "note": "Numbering of substitutions follows the chain as printed.", "data": [{"binder": "B1", "values": [{"measurement": "% repression (E2 repression assay, COS7 cells, without chloroquine)", "value": 94.3, "unit": "% repression"}]}, {"binder": "B2", "values": [{"measurement": "% repression (E2 repression assay, COS7 cells, without chloroquine)", "value": 69.4, "unit": "% repression"}]}, {"binder": "B3", "values": [{"measurement": "% repression (E2 repression assay, COS7 cells, without chloroquine)", "value": 0.3, "unit": "% repression"}]}]}
